Test results from PMC7171158, “NusA directly interacts with antitermination factor Q from phage λ” (Scientific Reports, 2020).

Target: T1, NusA acidic repeat 2 domain (NusA-AR2) (E. coli, UniProt P0AFF6 426-495)
T1 construct: acidic repeat 2 domain (C-terminal domain) of E. coli NusA
Assay: NMR titration; 2H,15N-NusA-SKK titrated with NusA-AR2 and 15N-NusA-AR2 titrated with NusA-SKK (up to 1:7.5); 5 mm tubes; 298 K; 50 mM MOPS pH 6.5, 100 mM NaCl, 150 mM D-glucose, 5 mM DTT; two-state fit of chemical shift changes
Conditions: both partners purified

B1: NusA-SKK (S1, KH1 and KH2 domains of NusA) (domain or fragment)
chain: not shown
- Kd: < 341 µM
